# According to US11844843 (DYNE THERAPEUTICS, dated 2023):
# B1: humanized anti-TfR Fab 3M12 VH4/Vκ3 (Fab, V domains shown)
# VH: QVQLQESGPGLVKPSQTLSLTCTVTGYSITSGYYWNWIRQPPGKGLEWIGYITFDGANNYNPSLKNRVSISRDTSKNQFSLKLSSVTAEDTATYYCTRSSYDYDVLDYWGQGTTVTVSS
# VL: DIQMTQSPSSLSASVGDRVTITCRASQDISNFLNWYQQKPGQPVKLLIYYTSRLHSGVPSRFSGSGSGTDFTLTISSLQPEDFATYYCQQGHTLPYTFGQGTKLEIKR
# notes: also called 3M12 (VH4/Vk3); anti-TfR Fab 3M12 VH4/Vk3
# Key:
# [1] = biological target: T1, recombinant cynomolgus monkey (Macaca fascicularis) TfR1 (cynomolgus monkey (Macaca fascicularis), UniProt Q5RDH6 87-760 (Pongo abelii entry), limits assumed); assay: ELISA on plate-coated recombinant cTfR1, fluorescent anti-(H+L) IgG-A488 detection, % normalized RFUs
# T1 construct: Recombinant protein; also called cTfR1; cyTfR1
# T1 chain: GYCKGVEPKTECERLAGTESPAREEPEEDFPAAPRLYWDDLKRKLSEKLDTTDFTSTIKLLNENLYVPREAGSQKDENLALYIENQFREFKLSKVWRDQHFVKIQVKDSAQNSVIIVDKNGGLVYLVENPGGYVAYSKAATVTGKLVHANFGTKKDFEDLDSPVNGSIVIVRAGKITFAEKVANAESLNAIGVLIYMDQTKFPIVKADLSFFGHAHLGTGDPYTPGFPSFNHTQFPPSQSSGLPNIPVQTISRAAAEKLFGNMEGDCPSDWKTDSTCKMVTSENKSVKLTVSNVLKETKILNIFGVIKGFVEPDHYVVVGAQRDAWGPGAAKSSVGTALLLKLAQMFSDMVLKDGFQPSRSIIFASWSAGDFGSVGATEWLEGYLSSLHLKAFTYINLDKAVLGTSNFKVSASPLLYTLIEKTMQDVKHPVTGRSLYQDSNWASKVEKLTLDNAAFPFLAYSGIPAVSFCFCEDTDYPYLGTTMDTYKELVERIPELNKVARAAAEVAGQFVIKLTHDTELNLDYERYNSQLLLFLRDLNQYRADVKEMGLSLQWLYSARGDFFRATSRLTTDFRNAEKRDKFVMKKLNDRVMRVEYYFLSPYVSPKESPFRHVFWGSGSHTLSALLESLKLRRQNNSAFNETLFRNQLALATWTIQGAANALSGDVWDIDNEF
# Experimental: To measure binding of humanized anti-TfR antibodies to TfR1, ELISAs were conducted. High binding, black, flat bottom, 96 well plates (Corning #3925) were first coated with 100 μL/well of recombinant huTfR1 at 1 μg/mL in PBS and incubated at 4° C. overnight. Wells were emptied and residual liquid was removed. Blocking was conducted by adding 200 μL of 1% BSA (w/w) in PBS to each well. Blocking was allowed to proceed for 2 hours at room temperature on a shaker at 30) rpm. After blocking, liquid was removed and wells were washed three times with 300 μL of TBST. Anti-TfR1 antibodies were then added in 0.5% BSA/TBST in triplicate in an 8 point serial dilution (dilution range 5 μg/mL-5 ng/mL). A positive control and isotype controls were also included on the ELISA plate. The plate was incubated at room temperature on an orbital shaker for 60 minutes at 300 rpm, and the plate was washed three times with 300 μL of TBST. Anti-(H+L)IgG-A488 (1:500) (Invitrogen #A11013) was diluted in 0.5% BSA in TBST, and 100 μL was added to each well. The plate was then allowed to incubate at room temperature for 60 minutes at 300 rpm on orbital shaker. The liquid was removed and the plate was washed four times with 300 μL of TBST. […] Data was recorded and analyzed for $EC50$. […]
# [2] = biological target: T2, recombinant human TfR2 (transferrin receptor 2) (human, UniProt Q9UP52 105-801, limits assumed); assay: ELISA on plate-coated recombinant human TfR2, anti-(H+L) IgG-A488 secondary
# T2 construct: Recombinant protein in ELISA and SPR; also called hTfR2
# T2 sequence (looked up): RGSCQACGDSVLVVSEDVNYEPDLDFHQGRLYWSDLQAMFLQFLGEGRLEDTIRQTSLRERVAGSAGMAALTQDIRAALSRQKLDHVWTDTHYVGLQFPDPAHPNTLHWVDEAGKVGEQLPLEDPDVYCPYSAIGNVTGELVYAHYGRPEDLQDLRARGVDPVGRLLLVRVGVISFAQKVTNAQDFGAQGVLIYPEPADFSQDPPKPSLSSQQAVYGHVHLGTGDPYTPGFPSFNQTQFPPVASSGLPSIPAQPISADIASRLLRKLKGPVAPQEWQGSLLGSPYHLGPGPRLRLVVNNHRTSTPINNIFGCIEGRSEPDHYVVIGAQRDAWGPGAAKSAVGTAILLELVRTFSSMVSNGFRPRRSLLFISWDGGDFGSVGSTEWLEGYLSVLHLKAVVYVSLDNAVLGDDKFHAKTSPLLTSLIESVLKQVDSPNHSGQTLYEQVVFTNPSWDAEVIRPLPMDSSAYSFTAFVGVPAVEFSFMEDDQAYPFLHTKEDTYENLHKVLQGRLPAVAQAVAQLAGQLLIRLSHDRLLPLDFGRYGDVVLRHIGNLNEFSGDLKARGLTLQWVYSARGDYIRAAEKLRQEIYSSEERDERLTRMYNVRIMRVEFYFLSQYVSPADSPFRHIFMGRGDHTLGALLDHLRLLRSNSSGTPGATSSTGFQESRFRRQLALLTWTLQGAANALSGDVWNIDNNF
# Experimental: Recombinant human TfR2 protein was plated overnight at […] and was blocked for 1 hour with 1% bovine serum albumin (BSA) in PBS. Serial dilutions of the Fab or a positive control anti-TfR2 antibody were added in 0.5% BSA/TBST for 1 hour. After washing, anti-(H+L) IgG-A488 (Invitrogen #MA5-25932) fluorescent secondary antibody was added at a 1:500 dilution in 0.5% BSA/TBST and the plate was incubated for 1 hour. Relative fluorescence was measured using a Biotek Synergy plate reader at 495 nm excitation and 520 nm emission.
# [3] = biological target: T1, recombinant cynomolgus monkey (Macaca …); assay: Table 14, unconjugated Fab, d9 (after 9 days at 40 C); method not named
# [4] = biological target: T3, recombinant human TfR1 (transferrin receptor protein 1) (human, UniProt P02786 89-760); assay: as above
# T3 construct: Recombinant protein in SPR and ELISA; they were assigned to this molecule; also called hTfR1; huTfR1
# T3 sequence (P02786 89-760 limits assumed): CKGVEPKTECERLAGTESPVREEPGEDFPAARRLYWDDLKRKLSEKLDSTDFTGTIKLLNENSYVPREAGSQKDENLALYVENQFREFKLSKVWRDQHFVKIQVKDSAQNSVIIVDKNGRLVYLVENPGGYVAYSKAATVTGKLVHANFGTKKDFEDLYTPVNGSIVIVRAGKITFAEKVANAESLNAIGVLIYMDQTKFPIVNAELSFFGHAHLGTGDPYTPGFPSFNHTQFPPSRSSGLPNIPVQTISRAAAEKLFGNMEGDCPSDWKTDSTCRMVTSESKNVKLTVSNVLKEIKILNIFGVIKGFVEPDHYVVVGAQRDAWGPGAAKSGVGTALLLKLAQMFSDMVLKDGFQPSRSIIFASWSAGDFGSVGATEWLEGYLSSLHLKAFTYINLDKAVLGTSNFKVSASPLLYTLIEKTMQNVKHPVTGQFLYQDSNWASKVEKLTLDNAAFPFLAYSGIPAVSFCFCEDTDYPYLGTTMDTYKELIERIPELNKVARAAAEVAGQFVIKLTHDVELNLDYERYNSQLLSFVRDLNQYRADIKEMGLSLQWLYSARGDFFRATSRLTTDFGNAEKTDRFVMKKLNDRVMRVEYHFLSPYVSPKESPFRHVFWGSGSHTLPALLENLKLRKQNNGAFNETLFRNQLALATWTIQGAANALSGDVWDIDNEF
binder,measurement,setting,value
B1,EC50,[1],9.9 nM
same,binding result,[2],no binding (tested: 500 nM)
same,Binding affinity,[3],16.4 nM
same,Binding affinity,[4],0.28 nM
